Results: the RNAGym collection of RNA variant scans (doi:10.7554/elife.80360)

B1: Hammerhead Ribozyme (parent)
chain: ACCGGAUGUGCUUUCCGGUCUGAUGAGUCCGUGAGGACGAAACAG

Variants of: B1
Test: self-cleavage, relative activity (ratio to wild type); higher = more cleavage; co-transcriptional

Variant | self-cleavage
ACCGGAUGUGCUUUCCGGUAUGAUGAGUCCGUGGGGACGAAACAG [C20A A34G] | 0.341
ACCGGAUGUUCUUUCCGAUCUGAUGAGUCCGUGAGGACGAAACAG [G10U G18A] | 0.836
ACCGGAUGUGCUUUCCGGGCUGAUGAGUGCGUGAGGACGAAACAG [U19G C29G] | 0.307
ACCGGAUGUGCUUGCCGGUCUGAUGAGUCCGUGAGAACGAAACAG [U14G G36A] | 0.729
AGCGGAUGUGCUUUCCGGUCUGAUGAGUCCGUGAGGAAGAAACAG [C2G C38A] | 0.336
ACCGGAUGUGCCUUCCGGUCUGAUGAGUCCGUGUGGACGAAACAG [U12C A34U] | 0.668
ACCGGAUGUGCUUUCCGGUCUGAUGAGUCCGUAAGGACGAAACAA [G33A G45A] | 0.794
ACCGGAUGUGCAUUCCGGUCUGAUGAGUCCGUGAGGACGGAACAG [U12A A40G] | 0.315
ACCGGAAGUGCUUUCCGGUCUGAAGAGUCCGUGAGGACGAAACAG [U7A U24A] | 1.26
ACCGGAUGUGCUUUCCGGUCUGAUGAGUCCGGCAGGACGAAACAG [U32G G33C] | 0.966
ACCGGAUGUGCUUUCCGCUCUGAUAAGUCCGUGAGGACGAAACAG [G18C G25A] | 0.328
ACCGGAUGGGCUUUCCGGUCUGAUGAGUCCGUGAAGACGAAACAG [U9G G35A] | 0.707
ACCGUAUGUGCUUUCCGGUCUGAUGAAUCCGUGAGGACGAAACAG [G5U G27A] | 0.504
ACCGUAUGUGCUUUCCGGUCUGAUGAGUCCGUGAGGAGGAAACAG [G5U C38G] | 0.349
ACCGGAAGUGCUUUCCAGUCUGAUGAGUCCGUGAGGACGAAACAG [U7A G17A] | 0.498
ACCGGAUGUGCUUUCCGGUCUGAUUAGUACGUGAGGACGAAACAG [G25U C29A] | 0.321
ACCGAAUGUGCUUUCCGGUCUGAUUAGUCCGUGAGGACGAAACAG [G5A G25U] | 0.354
ACCGGAGGUGCUUUGCGGUCUGAUGAGUCCGUGAGGACGAAACAG [U7G C15G] | 0.699
ACCGGAUGUGCUUUCCGGUCUGAUGAGAUCGUGAGGACGAAACAG [U28A C29U] | 0.774

Variant | self-cleavage
ACCGGAUGUGCUUUCCGGUUUGAUGAGUCCGUGAGGACGCAACAG [C20U A40C] | 0.407
ACCGGAUGUGGUUUCCGGUCUGAUGAGUCCGUGAGAACGAAACAG [C11G G36A] | 0.763
ACCGGAAGUGCUUUCCGGUCUUAUGAGUCCGUGAGGACGAAACAG [U7A G22U] | 0.231
ACCGGAUGUGCUUUCCUGUCAGAUGAGUCCGUGAGGACGAAACAG [G17U U21A] | 0.591
ACCGGAUGUGGUUUCCGGUCUGAUGAGCCCGUGAGGACGAAACAG [C11G U28C] | 1.13
ACCGGAUGUGCUUUCCGGUCUGAGGAGUCCGUGAUGACGAAACAG [U24G G35U] | 0.907
ACCGGAUGUGCUUUCCGGUCUGAUGAGUCCGGGAAGACGAAACAG [U32G G35A] | 0.473
ACGGGAUGUGCUUUCCGGUCUGAUGAGCCCGUGAGGACGAAACAG [C3G U28C] | 0.447
ACCGGAUGUGCUUUCCGGUCUGAUGAGUCCGUGACGACCAAACAG [G35C G39C] | 0.365
AGCGGAUGUGCUUUCCGGUUUGAUGAGUCCGUGAGGACGAAACAG [C2G C20U] | 0.344
ACCCGAUGUGCUUUCCGGUCUGAUGAGUCCGUCAGGACGAAACAG [G4C G33C] | 0.742
ACCGGGUAUGCUUUCCGGUCUGAUGAGUCCGUGAGGACGAAACAG [A6G G8A] | 1.17
ACCGGAUGUGCUUUCCGAUCCGAUGAGUCCGUGAGGACGAAACAG [G18A U21C] | 0.396
AGCGGAUGUGCUUUCCGGUCUGAUGAGUGCGUGAGGACGAAACAG [C2G C29G] | 0.354
AUCGGAUGUGCUUUCCGGUCUGAUGAGACCGUGAGGACGAAACAG [C2U U28A] | 0.445
ACCGGAUGCGCUUUUCGGUCUGAUGAGUCCGUGAGGACGAAACAG [U9C C15U] | 0.863
ACCGGAUGUGCUGUCCGGUCUGAUGAGUCCGUGAAGACGAAACAG [U13G G35A] | 0.916
ACCGAAUGUGCUUUCCGGUAUGAUGAGUCCGUGAGGACGAAACAG [G5A C20A] | 0.415
ACCUGAUGUGCUUUCCGGUCUGAUGAGUCCGUUAGGACGAAACAG [G4U G33U] | 0.576

Variant | self-cleavage
ACCGGAUGUGCUUUCCGGUCUGAUGACUCCGUGAAGACGAAACAG [G27C G35A] | 0.443
AACGGCUGUGCUUUCCGGUCUGAUGAGUCCGUGAGGACGAAACAG [C2A A6C] | 0.306
ACCGGAUGUGCUUUCCGGUCGGAUGAGUCCGUGAGGACGAAACCG [U21G A44C] | 0.285
ACCGGAUGUGCUUUCAGGUCUGAUGAGUCCGUGAUGACGAAACAG [C16A G35U] | 0.563
ACCGGAUGUGCGAUCCGGUCUGAUGAGUCCGUGAGGACGAAACAG [U12G U13A] | 1.25
ACCGGAUGUGCUUUCCGGUCUGAUGAAUCCAUGAGGACGAAACAG [G27A G31A] | 0.61
ACCGGAUGUGCUUUCCGGUCUGAUGAGUCCGUGCGGAAGAAACAG [A34C C38A] | 0.472
ACCGGAUGUGCUUUCUGGUCUGAUGAGUCCGUGAGGACGAAACAC [C16U G45C] | 0.921
ACCGGAUGUGCGUUCUGGUCUGAUGAGUCCGUGAGGACGAAACAG [U12G C16U] | 0.968
ACCGGAUGUGCUUACCGAUCUGAUGAGUCCGUGAGGACGAAACAG [U14A G18A] | 0.327
ACCGGAUGUGCUUUCAGGUCAGAUGAGUCCGUGAGGACGAAACAG [C16A U21A] | 0.668
ACCGGAGGUGCUUUCCGGUCUGAUGAGUCCGUGAGGACGAUACAG [U7G A41U] | 0.342
ACCGGAUGUGCUUACCGGUAUGAUGAGUCCGUGAGGACGAAACAG [U14A C20A] | 0.44
ACCGGAUGUGCAUUCCGGUCUGAUGAGUCCGUGAGGGCGAAACAG [U12A A37G] | 0.71
ACCGGAUGUGCUUUCAGGUCUGAUGAGUCCGUUAGGACGAAACAG [C16A G33U] | 1.4
ACCGGAUGUGCUUUCCGGUCUGAUGAGUCCGUGAGGAAGCAACAG [C38A A40C] | 0.411
ACAGGUUGUGCUUUCCGGUCUGAUGAGUCCGUGAGGACGAAACAG [C3A A6U] | 0.371
ACCGGAUGUGCUGUCCGGUCUGAUGAGUCCGUGAGGACGAAACAC [U13G G45C] | 0.596
ACAGGAUGUGCUUUCCGGUCUGAUGAGUCCGCGAGGACGAAACAG [C3A U32C] | 0.803
